This note sets out measurements from US20240352156A1 (BIOGRAPH 55, published 2024).

In experiment [1] the target is T1, CD38 (antigen in solution, Octet assays) (human, UniProt P28907 43-300, limits assumed).
T1 construct: also called Cluster of Differentiation 38; ADPRC1
Kind of experiment: BLI (OctetRed96), antibody on anti-hIgG Fc capture sensor.
Protocol: (§1) The binding affinities of parental and bispecific antibodies were determined using bio-layer interferometry. Binding experiments were performed on OctetRed96 at 25° C. using an assay Buffer consisting of 0.1% BSA, 1×PBS, 0.02% Tween-20, 0.05% NaN3. The antibodies were loaded onto Anti-hIgGFc Capture biosensors for 300 seconds. The ligand-loaded sensors were dipped into a series dilution (starting at 300 nM: two-fold series dilution for CD19 and three-fold series dilution for CD38) of the antigens for association (200 seconds for CD19 and 150 seconds for CD38) followed by dissociation (600 seconds for CD19 and 400 seconds for CD38). Kinetic constants were calculated using a monovalent (1:1) binding model.

The target in experiment [2] is T2, CD38 on cells (CD38-transfected HEK293, Daudi, REH) (human, UniProt P28907 1-300).
T2 construct: whole, on cells; also called HEK293-CD38
Kind of experiment: flow cytometry on CD38-transfected HEK293 cells, MFI against test article concentration.

The target of experiment [3] is T3, CD19 (antigen in solution, Octet assays) (human, UniProt P15391 20-291, limits assumed).
T3 construct: also called Cluster of Differentiation 19; B4
T3 sequence (looked up): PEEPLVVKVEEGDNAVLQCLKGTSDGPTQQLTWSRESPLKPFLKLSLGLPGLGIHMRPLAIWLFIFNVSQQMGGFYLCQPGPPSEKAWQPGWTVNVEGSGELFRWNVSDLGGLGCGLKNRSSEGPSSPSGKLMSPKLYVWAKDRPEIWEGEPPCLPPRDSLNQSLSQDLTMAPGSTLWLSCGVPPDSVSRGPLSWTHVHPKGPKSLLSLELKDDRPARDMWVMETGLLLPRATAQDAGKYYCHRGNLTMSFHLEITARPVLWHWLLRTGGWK
Kind of experiment: BLI (OctetRed96), antibody on anti-hIgG Fc capture sensor.
Protocol: as §1

B1: 851A = anti-CD19 3C10 (antibody, V domains shown)
VH: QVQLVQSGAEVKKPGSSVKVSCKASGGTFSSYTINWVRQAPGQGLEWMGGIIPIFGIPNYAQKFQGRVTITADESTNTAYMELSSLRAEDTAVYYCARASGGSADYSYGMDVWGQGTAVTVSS
VL: DIQMTQSPSSLSASVGDRVTITCRASQGISSWLAWYQQKPEKAPKSLIYAASSLQSGVPSRFSGSGSGTDFTLTISSLQPEDFATYYCQQYKRYPYTFGQGTKLEIKR
notes: captured by anti-human IgG Fc
Consider B1, for which the figures for the binding result in experiment [1] and in experiment [2] were “no binding (tested: antigen dilutions starting at 300 nM)” and “no binding (tested: 133 nM)”, respectively.

B2: 851C = anti-CD38 003 heavy chain & anti-CD19 3C10 light chain (antibody, V domains shown)
VH: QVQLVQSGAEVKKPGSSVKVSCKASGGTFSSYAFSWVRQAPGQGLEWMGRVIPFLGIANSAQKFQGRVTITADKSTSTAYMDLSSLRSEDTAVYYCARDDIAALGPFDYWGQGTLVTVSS
VL: DIQMTQSPSSLSASVGDRVTITCRASQGISSWLAWYQQKPEKAPKSLIYAASSLQSGVPSRFSGSGSGTDFTLTISSLQPEDFATYYCQQYKRYPYTFGQGTKLEIKR
B2: in experiment [3], the binding result is listed as “no binding (tested: antigen dilutions starting at 300 nM)”.
